Data reported in patent publication US20160257728A1 (JOINT CENTER FOR BIOSCIENCES, published 2016).

B2: MB109 protein (bioactive recombinant human BMP-9 expressed in E. coli and refolded; functional dimer) (ligand)
chain: MSAGAGSHCQKTSLRVNFEDIGWDSWIIAPKEYEAYECKGGCFFPLADDVTPTKHAIVQTLVHLKFPTKVGKACCVPTKLSPISVLYKDDMGVPTLKYHYEGMSVAECGCR
notes: also called purified MB109

Key:
[1] = molecular target: B2; experiment: SPR (BIAcore 3000), ECD-Fc on CM5 chip, MB109 as analyte
Method: (§1) The receptor ECDs were purchased from R&D Systems (Minneapolis, USA) as C-terminal Fc-tagged chimera. The binding affinities were measured using a BIAcore 3000 (GE Healthcare, USA) following a protocol described previously by Allendorph et al. with minor modification (see, e.g., Allendorph et al., Plos One 6(11):e26402 (2011), and Allendorph et al., Proceedings of the National Academy of Sciences of the United States of America 103(20):7643-7648, 2006). In brief, the ECD-Fc proteins were prepared in a pH 4.0 solution and captured on flow cell 2, 3 and 4 of the CM5 sensor chip at a flow rate of 10 μL/min until the density researched ˜1,000 response units. Flow cell 1 was left blank for background subtraction. For kinetic analysis, purified MB109 was prepared in a series of 2-fold dilution in an assay solution (10 mM HEPES, pH 7.4, 150 mM NaCl, 3.4 mM EDTA and 0.005% Tween-20) and injected over the flow cells at a flow rate of […]. All tests were performed using a set of 2-fold diluted protein concentrations from 20 to 0.3 nM plus the assay solution as a blank. The data fitting was performed using a minimum of 4 concentrations and a global 1:1 Langmuir binding with mass transfer model.
(§2) To determine receptor binding specificity of MB109, purified MB109 was subjected to surface plasmon resonance analysis to determine its binding affinities to immobilized extracellular domains (ECDs) of Type I and Type II receptors, including ALK1, ActRIa (ALK2), ActRIb (ALK4), BMPRIa (ALK3), BMPRIb (ALK6), TGFβRI (ALK5), ALK7, ActRIIa, ActRIIb, BMPRII, TGF-βRII and MISRII. Among these receptor ECDs, MB109 had strong binding affinity only to ALK1, ActRIIb and BMPRII, while the binding to the other receptor ECDs were either very transient (to ActRIIa) or non-detectable (see TABLE 2).

[2] = molecular target: T1, TGF-βRII ECD-Fc (human, UniProt P37173 23-166); experiment: as above
T1 construct: extracellular domain; Bought from R&D Systems as C-terminal Fc-tagged chimera; not shown: C-terminal human IgG1 Fc tag
T1 sequence (P37173 23-166): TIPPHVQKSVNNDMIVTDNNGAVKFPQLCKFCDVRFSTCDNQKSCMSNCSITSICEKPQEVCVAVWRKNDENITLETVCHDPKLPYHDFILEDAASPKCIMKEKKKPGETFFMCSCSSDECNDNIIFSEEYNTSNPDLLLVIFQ
Method: as §1, §2

[3] = molecular target: T2, MISRII ECD-Fc (human, UniProt Q16671 18-149, limits assumed); experiment: as above
T2 construct: extracellular domain; Bought from R&D Systems as C-terminal Fc-tagged chimera; not shown: C-terminal human IgG1 Fc tag
T2 sequence (Q16671 18-149 limits assumed): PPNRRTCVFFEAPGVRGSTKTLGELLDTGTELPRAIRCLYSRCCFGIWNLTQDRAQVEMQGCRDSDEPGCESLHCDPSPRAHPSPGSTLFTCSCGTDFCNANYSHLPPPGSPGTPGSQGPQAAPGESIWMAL
Method: as §1, §2

[4] = molecular target: T3, BMPRIa (ALK3) ECD-Fc (human, UniProt P36894 24-152, limits assumed); experiment: as above
T3 construct: extracellular domain; Bought from R&D Systems as C-terminal Fc-tagged chimera; not shown: C-terminal human IgG1 Fc tag
T3 sequence (P36894 24-152 limits assumed): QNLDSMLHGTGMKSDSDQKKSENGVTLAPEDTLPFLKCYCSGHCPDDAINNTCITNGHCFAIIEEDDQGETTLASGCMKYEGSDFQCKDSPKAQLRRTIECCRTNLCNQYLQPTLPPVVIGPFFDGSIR
Method: as §1, §2

[5] = molecular target: T4, BMPRIb (ALK6) ECD-Fc (human, UniProt O00238 14-126); experiment: as above
T4 construct: extracellular domain; Bought from R&D Systems as C-terminal Fc-tagged chimera; not shown: C-terminal human IgG1 Fc tag
T4 sequence (looked up): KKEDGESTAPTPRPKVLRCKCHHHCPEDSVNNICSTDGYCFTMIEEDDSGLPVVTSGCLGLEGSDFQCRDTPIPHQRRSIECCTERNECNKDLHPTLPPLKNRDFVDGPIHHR
Method: as §1, §2

[6] = molecular target: T5, ActRIIb ECD-Fc (human, UniProt Q13705 19-137, limits assumed); experiment: SPR (BIAcore 3000), ECD-Fc on CM5 chip, MB109 as analyte, global 1:1 Langmuir with mass transfer
T5 construct: extracellular domain; Bought from R&D Systems as C-terminal Fc-tagged chimera; not shown: C-terminal human IgG1 Fc tag
T5 sequence (looked up): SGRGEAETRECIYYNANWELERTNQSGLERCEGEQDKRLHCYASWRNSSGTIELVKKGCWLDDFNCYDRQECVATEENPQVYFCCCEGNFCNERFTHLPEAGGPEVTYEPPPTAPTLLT
Method: as §1, §2

[7] = molecular target: T6, BMPRII ECD-Fc (human, UniProt Q13873 27-150, limits assumed); experiment: as above
T6 construct: extracellular domain; Bought from R&D Systems as C-terminal Fc-tagged chimera; not shown: C-terminal human IgG1 Fc tag
T6 sequence (looked up): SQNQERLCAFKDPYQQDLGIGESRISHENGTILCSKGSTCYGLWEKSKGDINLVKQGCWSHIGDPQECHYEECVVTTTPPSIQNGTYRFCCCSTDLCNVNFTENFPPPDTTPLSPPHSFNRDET
Method: as §1, §2

[8] = molecular target: T7, ActRIIa ECD-Fc (human, UniProt P27037 20-135, limits assumed); experiment: as above
T7 construct: extracellular domain; Bought from R&D Systems as C-terminal Fc-tagged chimera; not shown: C-terminal human IgG1 Fc tag
T7 sequence (P27037 20-135 limits assumed): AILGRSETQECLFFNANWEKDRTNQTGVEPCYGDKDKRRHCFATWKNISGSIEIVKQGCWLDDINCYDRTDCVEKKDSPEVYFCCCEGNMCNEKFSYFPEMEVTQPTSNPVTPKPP
Method: as §1, §2

B1: TGF-betaRI (ALK5) ECD-Fc (Fc fusion, UniProt P36897 34-126, looked up)
chain: LQCFCHLCTKDNFTCVTDGLCFVSVTETTDKVIHNSMCIAEIDLIPRDRPFVCAPSSKTGSVTTTYCCNQDHCNKIELPTTVKSSPGLGPVEL
notes: extracellular domain; Bought from R&D Systems as C-terminal Fc-tagged chimera; also called TGFβRI; not shown: C-terminal human IgG1 Fc tag
- binding result [1]: no binding (tested: 20 to 0.3 nM)

Binder: B2
- binding result [2]: no binding (tested: 20 to 0.3 nM)
- binding result [3]: no binding (tested: 20 to 0.3 nM)
- binding result [4]: no binding (tested: 20 to 0.3 nM)
- binding result [5]: no binding (tested: 20 to 0.3 nM)
- Kd [6]: 0.154 nM
- koff [6]: 0.00152 s⁻¹
- kon [6]: 9.91e+06 M⁻¹ s⁻¹
- Kd [7]: 0.33 nM
- koff [7]: 0.00153 s⁻¹
- kon [7]: 4.63e+06 M⁻¹ s⁻¹
- Kd [8]: 4.27 nM
- koff [8]: 0.0121 s⁻¹
- kon [8]: 2.85e+06 M⁻¹ s⁻¹

B3: ALK7 ECD-Fc (Fc fusion, UniProt Q8NER5 22-113, looked up)
chain: LSPGLKCVCLLCDSSNFTCQTEGACWASVMLTNGKEQVIKSCVSLPELNAQVFCHSSNNVTKTECCFTDFCNNITLHLPTASPNAPKLGPME
notes: extracellular domain; Bought from R&D Systems as C-terminal Fc-tagged chimera; not shown: C-terminal human IgG1 Fc tag
- binding result [1]: no binding (tested: 20 to 0.3 nM)

B4: ActRIa (ALK2) ECD-Fc (Fc fusion, UniProt Q04771 21-123, looked up)
chain: MEDEKPKVNPKLYMCVCEGLSCGNEDHCEGQQCFSSLSINDGFHVYQKGCFQVYEQGKMTCKTPPSPGQAVECCQGDWCNRNITAQLPTKGKSFPGTQNFHLE
notes: as for B3
- binding result [1]: no binding (tested: 20 to 0.3 nM)

B5: ActRIb (ALK4) ECD-Fc (Fc fusion, UniProt P36896 24-126, looked up)
chain: SGPRGVQALLCACTSCLQANYTCETDGACMVSIFNLDGMEHHVRTCIPKVELVPAGKPFYCLSSEDLRNTHCCYTDYCNRIDLRVPSGHLKEPEHPSMWGPVE
notes: as for B3
- binding result [1]: no binding (tested: 20 to 0.3 nM)
